Assay results reported in paper PMC10754921.

Target: FMC63-scFv (VL - Whitlow linker - VH, C-terminal His8 tag) (mouse)
Test: SEC-MALS; 25 µg injected, Superdex 200 Increase 10/300 GL, PBS with additional 200 mM NaCl, pH 7.4, 25 °C

percent dimers: 20%
stoichiometry N: 2
Substance: FMC63-scFv (VL - Whitlow linker - VH, C-terminal His8 tag)
